Reference: PMC4893650 (Theranostics, 2016)

Molecular target: purified HER2 protein (human epidermal growth factor receptor-2) (human, UniProt P04626 23-652)
Test: SPR

B1: peptide P51 (peptide)
peptide: CDTFPYLGWWNPNEYRY
Kd: 18.6 nM
